Results as given in the domain aggregation screens of Martell et al. (2025).

Experiment: soluble fraction after stress (log2 fold change); higher = more stays soluble; pooled small domains, quantitative proteomics
Conditions: stress: 50 degC
Summary of the method: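 Custom libraries of small protein domains were pooled and measured in a high-throughput format, with quantitative proteomics as the read-out. Each library was stressed at 50°C. The value is the log2 fold change in the amount of each protein that stays soluble after stress, used as a measure of aggregation propensity; higher values mean more of the protein stays soluble.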

Sequence	soluble fraction (log2)
HMITVPKVINMSETQARQTLDALGLNVTLSATQVMNDKIPYGYVAAQSYSAGKEVPAGTTIELTMSIGL	-0.945
HMPDYAFEGVVIKLTHRDYDRWKAGFPDVDLPPYLTARDAWLSEQTPADRKNWFVSTATDLRNFQKREAI	-1.66
HMAEIIVHEINRHLGESDEPVEFPEERREEAVAELLKNFHNDDAFRKMDDGKYEVALDGEAVREAARSLLA	0.207
HMSASAIYVRPKDVKEPEEVADYLSGVLELDREKLYKKITDKSQWIALIERKVDNDIAFDIRNKKFKGIEI	-0.0243
HMARVSGIDLPKNKRGYIGLTYIYGIGRSTALHILNSAGVDPEKKVHEWNDDETTAIRNIINAEIKVEGAL	-0.645
HMLQLKEPLKKVYERLTPVPKTAETILAELWEKGEYLDIAALHRALMELELSGYVRQSSPGYFGTSA	-0.096
HMVVVPDVKGLKIEEAAEFFKNNNLHYNVIDSVFSKDVEPGAIVELSPLAGSKVKEGRIVFITVNALTS	-0.651
HMQEISQEEALATVLKDLSLTEADLKDLQITREEDKYKILFSKGQTAYDVLVSAKDGQLLQSKQETI	-0.165
HMTDIKYLIADGNDIKHWDTASSSYVKVSELPLTSDKFKIYGDDIYHKERTGIIAASPILKIWSPSAE	0.369
HMSPILTPDQATKAYGKDGVLYIHSNKERTIYIYDVTGRTVRILEAVEGENQINGLEKGIYFLEGQKVAV	-0.233
HMGRFAETVEHIVAAQLARRQGIPTMEQFASFFNVSRATFQRRLGEEGETLEQIKQRVRLRLALELLHP	-2.86
HMNSEEINDVRKAVDELPTHLREILLLNYFQQMSYVQISDSLEIPLGTVKSRLHAAVAAFRNAWQSSQEE	-0.617
HMDITGIGIKKRIKAIIDSEDKKNPLSDTQIVEILKNEGLEISRRTVAKYRSDLQIPSSSKRKK	0.403
HMTANDKRNALYRKIEVGRRQLPAMDEVAFRQLLAAEFGVESRKDMSVGQLSRLVNILAEKGAVF	-0.203
HMQNDILIQADEIVGDYFDMDKEALKMNKQAVIADIEKRQATAQGDEASALHYAKQKVENEFEDDGSQKD	0.185
HMVKNYYEILEVDKKASPEVIEKAYKTLAKKYHPDLQEAENNGQYEEKMKEINEAYSVLSDEFKRRTYDEQ	0.114
HMYTVQQLARLAGITPRTLRHYDAIGLLKPTRVGENGYRYYGSEALLRLQSILLYRELDMPLEDIRRVLDS	-3.15
HMSELIDSLTEAVRSAPDAVPLRLHLAELLLADGQRDRAFAQLGQVLAKDPQNARALEMLGVGS	-0.0386
HMSASIAEGTVIMLENTTNIRSGMSEDSSKVGTAYAGEKVTVVMSYAEGWTKVKWNGETGYIKTALLQL	-0.212
HMPFSLHGVNEGSRNDNAARIAGYLISKNLNLDFVRIFLHNWNRDNKPPLPQQEIDSVVDNVKKTHDRKN	-0.828
HMHVSLSGKIHSELRKLILNGELKAGERLPSEPDLAHELGVSRNSLREAIGLLQREGLLLKKHGIGTFVTD	-0.829
HMLVTQSITVPMAMSGIRLDAALAMLFPDHSRNRLKAWLDDGHILVDGAVWAGKQRLEGNEEITATLPEAK	-0.207
HMQLLDIGSAVRIIREPYFGRLGTVVELPPELMEIESGTHARVLKAKLDDGTVAVVPRANVEIIVE	-0.171
HMIVMPELRGKDLKEAERLLSSHNLRYELVDSVYDKSLAPGVVVEMVPQSGNTVKPGRIIFLSINA	-0.878
HMELDMTFGEKIQKLRKESGLSQEELSYQLGVSRQAISKWERDSGYPETEKIVRMSKIFDVTLDYLLNE	-0.458

Sequence	soluble fraction (log2)
HMTTVRLNATVPPELALQRLDRVARELFPEYSRNRLQQWIRSGELLVNGSPSGVRDKVPLGAELAVAANLE	-0.416
HMGVGERIKARRKEIGLSAEQVAKELGVSPATVYRYESNDIMNMRIDKLEPIAKALHTTPAYLMGWE	-0.0318
HMAVPFTIDVSQNGRYFIEEDNQVVEVSIGFLEDRFLRIIKSNPDIEVIIRGDAKASYESIAELLAVLQ	-1.06
HMEKLNYSISNEEQGQRIDKYLSLMIEGKSRSFIQGLIDDKKVMANGKVIKSNYKLKNNDEITVEMPDPI	-0.155
HMIKNDIGKFIKLYRETHQWSQRELAEHLGVSQRNVSYYEKGERIPPADVLKKLSTLFDVPVDVLLGLK	-0.43
HMAYRLDVRNQTKGTYLVIQKKYWDKEKKQSRTKHHMSLGYVHDLQKLYSDPITHYKEVINQMNAEEKG	-1.54
HMSTVIENVFKNFEVYEIKKGDTFYNIEKRFGVNRQELLVLNPELKEGLKLGMVLKIKEIIP	-1.07
HMDGVTEYTVKSGDSFSAIINKHYNVNYDEKLMQAVAAYNNIEDMNKLQLGQIIKLPPKEQLNL	0.0199
HMDLFSAVVHHIVGQQISTKAQATIWKRMRDEFGVVDAAAVLGAGVEKLQSFGMTFRKAEYITDFARKIE	-2.51
HMQLPIGDVKLSVEHLSSGTALQDISFEVHRGEIFGFLGLVGAGRSETAETIFGLREKTDGKISIDGTVL	-0.214
HMHVGVWIMNEKGEILLEQRASNKKVDPNKWARIGGHVDAGEKPIQAIQREILEEIGVKIPLENFIVLET	-0.335
HMEALPELTDRQRQVYEFIEARIAEWGYPPTIREIGQHLGIKSTNGVADHLKALKRKGYLQQ	-0.0721
HMTAFSEQLIKLRKQKGLSQEQLGAAVGVTRQTVSKWELGDTTPELGKLVQLSDYFQLSIDELVGH	-0.0666
HMTMGAAEAQALKDEALELYRTGGTQEDVVRAIEMYEQAAEAGNAQAASDLAYLKANGVYETAMNN	0.268
HMGMSQQKQSSTVRIIMQDISDANEGLMKMSQIIDAALAEGISETIVRNAISNLHRGGTIYESQTGTYQW	-0.359
HMQDVWEPFLAKGYVFADGMLTKLIHKRGDVYKTQEIGSDKIIYVIKDGDTFAHGKTVKAAMLDLAFKKS	-1.29
HMAEQVLHQKLAARRKELNSLVAQVARVRGIPHSHVHSGLRREAGGPPLAQATTDQVEARISLARKWLRA	-0.728
HMDMQMPIMNGLEFLERINLTLDDNFSIIVLTGKIEDKSIEKSFELGINAYLRKPFNIYALLGIVRQN	-0.0848
HMEKEKIKEALIGYFEAEPEEKFTVQELADKLKMNKAGQFNFVVQAVAQLEHDKVITLDDEGNFSLVRHE	-0.623
HMIDENILSEEIKHYIETNNYAKDDKLPSERSLASLFNVSRALVRKSLISLVDVNYLYVKDKSGYYING	-0.0735
HMELLTNPLTGREVEVLTLMALGQTNHEIARQLYLATGTVKAHTSSIYRKLDVANRTEAVARARQLGIL	-1.1
HMDTDWDVSGVTPDQYRLLFSVLGGLAGVKDVGLNPDGLRIIHTPEALPSIEKAFQANGLKLKRNVD	0.035
HMKKVIKIEENVSLQKLAALMSLKVTDVLMRLLSMGMSGVNINSTIDADTAKILASEFGWTVED	-0.743
HMESRLQAAIALRKAGEHEQSREALKILADEPALRAQALLNIAWSFDNQGHERDAEGYYLAAIE	-0.131
HMVNDQSIYASEGYVHIRSGKPVSLRIYTILGALYRHEERLVGDHVIALPRGLYIVVLNHTAKKIMV	-1.01

Sequence	soluble fraction (log2)
HMSMPDERMLTSWMMARVKAAGKTMTRDAWNEFFERSNDSMDHMDMEMEKLLSYVYDKDGITLEDVEA	-0.394
HMEIESAHAQVLGVREIAASGATQHWIAFRFSDGHQRELLATPSQADVIFRGQQGVVHFAGDRLTGWIPE	-0.191
HMESMIGSLRGRLLELFGDGEVLIEVGGVGYRVIVTPTTTVRLGDVGGDVFVHVHHHIREADQTLYGF	-0.234
HMEQNHYEVLGVSRDAIPEEIRKAYFEYARKLHPDANPDPGAAEQFMRIQTAYDVLSNPDRRHEYDGLLPP	-0.000773
HMVIMDLIVNGEPKYVVGEQLHLILDELGYSGKHFVVELNGEILSKEAYTTTKLTAADRLEIVSFVGG	-3.5
HMSFSQNIGKRIREERLRLNLTQEKLAEDVNLSMAYIGQVERGDRSLTLDNLIIVAKRLGVTIDYLLS	-1.25
HMQLHDTMKRVYEALDISEQKLAESLGLKLSTIINWQKNGISKIGINKLNQTFGLDMQWILTGQGEPFI	0.116
HMTKSTSMDLGGFMIVEGSETVRLGGQILQKDVDYTIDYFSGKINFISEEALNPGAEISVSYEENQ	-0.187
HMIDYIKYTVDGKTYELINNWDGTWSRELEAPLVAGRYDLLLEISQNGLVTYIDSSDPRYEFYLDVI	-3.12
HMSDDAVVRMRVPEDALGLSLRETDFRQRFGVYVLAIETRDGKLLAPPDPQRPLGKDDVLVVIQKR	-0.138
HMDQDLGFLINKYFELGKDYNTLVEIYEKIKEYIASIDKKMLEYTKNFTIEQLKKWLDDGTINNIILTLG	-0.142
HMSGRSVSYSEFMSRVEAGQVSSVTLDGERVEVTGSDGSRYVTIAPSDATLTDKLVAKGVEVRADP	0.102
HMSDLTEVIVKFSGDIQPIRQDLDAQVEILLKGYAIITLSPNKIGRLYSYPQIESIEIPKNLYI	-1.26
HMVELNDNEKIVYDILKETEKIHIDELTAKVQLTQSILSGALVQMEMKGMIVSLPGKMYKLL	-0.132
HMNPLDGTSVHPESYEAAEKLLKKQGFSLEDISGGKLTGLSLTIKDYARLAKELEIGEITLRDIVKELEK	0.0193
HMGTWKKIGTMTATVNDLYVRETPNGYIMGFINKGTVVEVDGKTTGKWTHAKVEGIGVGWIWTGYLDK	-3.47
HMRFGNHHVYRTLMVLSDQKRKGRKQIADAVGIGEGSMRTIIEYLRGLDMIDIRQTGVKITRHGNAFL	0.0164
HMSDKPIFIDTAGIAALSAIGFSKYQATIIFNYIKKGGAIYTVKDLAKIYSIDQKTIDLTQSKIIFS	-0.0111
HMIPSLTITVNEHSRQITRGTSLYTLRDALYPDADVLVVNGHPADSDRHLEEGDAVVLIRRGA	-0.275
HMAGTKRAENIEIQKLTEVLEARLDSVGFFWPDHKAESMIMTLRNMISRLPLTEADVRVFHGIIKSLADK	-0.527
HMKNLTERQQQIIALISGNPLITRAEIASAIGFSVKTIERELSILSEIVSYVGSKKGGHWEIQT	-1.15
HMLVGGPDTPSKVTVSFDLGSRQAVDELTERAGAAGGRIGDIDDYPFMYQRQFDDPDGYHYSPFWMKP	-0.149
HMDISKTLGKNPLLIIDNIEYRGKTLDEITAMTGVKRFENIDIYGSEEAMKTYGEKAKDGVIIAYTT	0.0561
HMDSTLTNEIYNELYRAITHQELKPGQNLTLTMLKKQFNVSHTPIREALTRLSADGLVTYHPNKGMKVT	-0.274
HMPDLSMLDEVLDEYRSQAGSLVTVLQKAQDLYGYLPLTILRHIAEEMNIKPAQVYGVATFYTQFRL	-0.0547
